Measurements as given in patent US7267959B2, “Drug target within the sulfonylurea receptor” (priority 2001, dated 2007).

How the values were obtained:
[1] = biological target: T1, KATP channel (SUR1/KATP complex) in insulinoma HIT cells (Cricetus cricetus, UniProt Q09427); experiment: KATP whole-cell patch-clamp currents in insulinoma HIT cells; assay type: cell-based
T1 construct: in HIT cells on the endogenous KATP whole-cell currents; endogenous in cells; host or cells: insulinoma HIT cells
Experimental: Representative KATP whole-cell patch-clamp currents recorded from the control and syntaxin-1A overespressing HIT cells are shown in FIG. 6A. Cells were stimulated by voltage steps from −140 to 0 mV from a holding potential of −50 mV. […] All currents were recorded 15 min after the formation of the whole-cell configuration when a cell interior exchanged with the pipette solution containing low (0.3 mM) ATP concentration. […] An asterisk indicates the first minutes of recording after obtaining the whole-cell configuration. Pipette solution contains 3 mM MgADP and only 0.3 mM ATP. […] Currents were measured at −120 mV, and normalized to the maximal current (Imax).

NBF-1 and NBF-2 of SUR-1 = experiment: GST pull-down binding of Syn-1A or SNAP-25 with GST-NBF-1 / GST-NBF-2 of SUR-1, Western blot; conditions: 375 pmol protein each, 4° C., 2 hours, glutathione beads
Experimental: (§1) GST (control) or GST-NBF-1 or GST-NBF-2 (375 pmol protein)of SUR-1 or SUR-2A, bound to glutathione beads, was incubated with Syn-1A or SNAP-25 (375 pmol protein) in 25 mM Hepes (pH 7.4) with 50 mM NaCl, 0.1% gelatin, 0.1% Triton X-100, 0.1% BSA and 0.2% β-mercaptoethanol at 4° C. for 2 hours. Following washing the beads three times with 20 mM Hepes(pH 7.4) with 150 mM KoAc, 1 mM EDTA, 1 mM MgCl2, 5% glycerol and 0.1% Triton X-100, the samples were subjected to 15% SDS-PAGE, transferred to nitrocellulose membrane and probed with antibody against Syn-1A (1:2000) or SNAP-25 (1:1000).

[2] = tested on: NBF-1 and NBF-2 of SUR-2A; experiment: GST pull-down binding of Syn-1A or SNAP-25 with GST-NBF-1 / GST-NBF-2 of SUR-2A, Western blot; conditions: 375 pmol protein each, 4° C., 2 hours, glutathione beads
Experimental: as §1

[3] = biological target: T2, KATP channel in rat pancreatic beta cells (Rattus norvegicus, UniProt Q09429); experiment: KATP whole-cell patch-clamp currents in freshly isolated rat pancreatic beta cells; assay type: cell-based
T2 construct: recorded from the freshly isolated rat pancreatic beta cells; endogenous in cells; host or cells: freshly isolated rat pancreatic beta cells
T2 sequence (Q09429 whole entry): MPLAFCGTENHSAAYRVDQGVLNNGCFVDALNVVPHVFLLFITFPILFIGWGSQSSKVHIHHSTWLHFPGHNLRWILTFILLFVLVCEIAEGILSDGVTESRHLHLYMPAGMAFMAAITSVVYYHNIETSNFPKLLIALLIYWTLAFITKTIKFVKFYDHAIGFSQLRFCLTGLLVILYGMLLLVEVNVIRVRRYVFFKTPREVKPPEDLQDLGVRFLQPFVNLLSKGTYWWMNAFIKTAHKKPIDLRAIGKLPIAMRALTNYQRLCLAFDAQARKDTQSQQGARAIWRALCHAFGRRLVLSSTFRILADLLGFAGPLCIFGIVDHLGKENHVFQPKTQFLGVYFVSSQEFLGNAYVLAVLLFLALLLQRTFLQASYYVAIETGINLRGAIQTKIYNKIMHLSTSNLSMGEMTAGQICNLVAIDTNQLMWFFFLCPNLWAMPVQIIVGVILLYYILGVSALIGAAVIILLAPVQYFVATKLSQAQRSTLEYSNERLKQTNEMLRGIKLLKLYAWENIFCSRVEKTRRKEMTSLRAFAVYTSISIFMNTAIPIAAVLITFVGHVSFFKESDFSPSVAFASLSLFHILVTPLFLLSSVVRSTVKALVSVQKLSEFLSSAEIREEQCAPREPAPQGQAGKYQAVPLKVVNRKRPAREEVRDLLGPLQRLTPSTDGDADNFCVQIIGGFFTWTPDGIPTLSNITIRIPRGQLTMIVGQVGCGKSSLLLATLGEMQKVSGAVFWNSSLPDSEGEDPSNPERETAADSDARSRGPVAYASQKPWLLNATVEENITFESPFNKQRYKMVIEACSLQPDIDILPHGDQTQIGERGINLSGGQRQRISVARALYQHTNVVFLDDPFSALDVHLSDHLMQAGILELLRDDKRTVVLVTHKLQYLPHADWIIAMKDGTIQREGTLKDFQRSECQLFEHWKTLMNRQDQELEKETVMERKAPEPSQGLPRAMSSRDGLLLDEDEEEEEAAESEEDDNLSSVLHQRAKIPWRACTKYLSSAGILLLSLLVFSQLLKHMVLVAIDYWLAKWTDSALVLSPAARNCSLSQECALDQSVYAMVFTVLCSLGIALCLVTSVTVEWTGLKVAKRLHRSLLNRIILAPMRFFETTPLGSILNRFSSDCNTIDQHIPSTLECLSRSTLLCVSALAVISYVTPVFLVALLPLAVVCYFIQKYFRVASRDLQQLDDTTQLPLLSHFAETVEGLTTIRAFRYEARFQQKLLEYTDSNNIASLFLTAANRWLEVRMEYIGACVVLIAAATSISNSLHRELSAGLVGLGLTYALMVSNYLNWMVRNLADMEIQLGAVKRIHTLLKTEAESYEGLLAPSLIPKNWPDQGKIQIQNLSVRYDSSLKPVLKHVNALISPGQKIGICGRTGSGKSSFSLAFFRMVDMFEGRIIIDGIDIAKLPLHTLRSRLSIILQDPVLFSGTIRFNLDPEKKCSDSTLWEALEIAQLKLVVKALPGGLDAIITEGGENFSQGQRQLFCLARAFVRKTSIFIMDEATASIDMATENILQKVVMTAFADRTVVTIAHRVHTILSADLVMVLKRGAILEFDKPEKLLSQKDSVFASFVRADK
T2 sequence (P70673 whole entry partner): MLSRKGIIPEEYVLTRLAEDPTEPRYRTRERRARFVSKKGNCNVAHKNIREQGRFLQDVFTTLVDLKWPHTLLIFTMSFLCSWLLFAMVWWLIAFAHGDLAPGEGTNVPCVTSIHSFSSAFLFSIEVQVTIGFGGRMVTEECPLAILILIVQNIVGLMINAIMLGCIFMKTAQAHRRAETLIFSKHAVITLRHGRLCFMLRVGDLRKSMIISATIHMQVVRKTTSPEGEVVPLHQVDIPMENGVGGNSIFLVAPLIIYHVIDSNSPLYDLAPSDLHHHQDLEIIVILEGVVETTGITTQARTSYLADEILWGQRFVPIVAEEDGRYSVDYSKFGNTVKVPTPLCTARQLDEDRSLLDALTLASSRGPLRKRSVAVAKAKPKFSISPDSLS
Experimental: Representative KATP whole-cell patch-clamp currents recorded from the freshly isolated rat pancreatic beta cells in the absence (control) and presence of recombinant syntaxin-1A protein are shown in FIG. 7A. Cells were stimulated by voltage steps from −140 to −20 mV (or 0 mV) from a holding potential of −50 mV. […] Recombinant syntaxin-1A (10^−3 M) was dialyzed into the cell interior through the patch pipette. […] All currents were recorded 15 min after the formation of the whole-cell configuration when a cell interior exchanged with the pipette solution containing low (0.3 mM) ATP concentration that under control conditions opens the KATP channel.

T1 sequence (Q09427 whole entry, one chain of several): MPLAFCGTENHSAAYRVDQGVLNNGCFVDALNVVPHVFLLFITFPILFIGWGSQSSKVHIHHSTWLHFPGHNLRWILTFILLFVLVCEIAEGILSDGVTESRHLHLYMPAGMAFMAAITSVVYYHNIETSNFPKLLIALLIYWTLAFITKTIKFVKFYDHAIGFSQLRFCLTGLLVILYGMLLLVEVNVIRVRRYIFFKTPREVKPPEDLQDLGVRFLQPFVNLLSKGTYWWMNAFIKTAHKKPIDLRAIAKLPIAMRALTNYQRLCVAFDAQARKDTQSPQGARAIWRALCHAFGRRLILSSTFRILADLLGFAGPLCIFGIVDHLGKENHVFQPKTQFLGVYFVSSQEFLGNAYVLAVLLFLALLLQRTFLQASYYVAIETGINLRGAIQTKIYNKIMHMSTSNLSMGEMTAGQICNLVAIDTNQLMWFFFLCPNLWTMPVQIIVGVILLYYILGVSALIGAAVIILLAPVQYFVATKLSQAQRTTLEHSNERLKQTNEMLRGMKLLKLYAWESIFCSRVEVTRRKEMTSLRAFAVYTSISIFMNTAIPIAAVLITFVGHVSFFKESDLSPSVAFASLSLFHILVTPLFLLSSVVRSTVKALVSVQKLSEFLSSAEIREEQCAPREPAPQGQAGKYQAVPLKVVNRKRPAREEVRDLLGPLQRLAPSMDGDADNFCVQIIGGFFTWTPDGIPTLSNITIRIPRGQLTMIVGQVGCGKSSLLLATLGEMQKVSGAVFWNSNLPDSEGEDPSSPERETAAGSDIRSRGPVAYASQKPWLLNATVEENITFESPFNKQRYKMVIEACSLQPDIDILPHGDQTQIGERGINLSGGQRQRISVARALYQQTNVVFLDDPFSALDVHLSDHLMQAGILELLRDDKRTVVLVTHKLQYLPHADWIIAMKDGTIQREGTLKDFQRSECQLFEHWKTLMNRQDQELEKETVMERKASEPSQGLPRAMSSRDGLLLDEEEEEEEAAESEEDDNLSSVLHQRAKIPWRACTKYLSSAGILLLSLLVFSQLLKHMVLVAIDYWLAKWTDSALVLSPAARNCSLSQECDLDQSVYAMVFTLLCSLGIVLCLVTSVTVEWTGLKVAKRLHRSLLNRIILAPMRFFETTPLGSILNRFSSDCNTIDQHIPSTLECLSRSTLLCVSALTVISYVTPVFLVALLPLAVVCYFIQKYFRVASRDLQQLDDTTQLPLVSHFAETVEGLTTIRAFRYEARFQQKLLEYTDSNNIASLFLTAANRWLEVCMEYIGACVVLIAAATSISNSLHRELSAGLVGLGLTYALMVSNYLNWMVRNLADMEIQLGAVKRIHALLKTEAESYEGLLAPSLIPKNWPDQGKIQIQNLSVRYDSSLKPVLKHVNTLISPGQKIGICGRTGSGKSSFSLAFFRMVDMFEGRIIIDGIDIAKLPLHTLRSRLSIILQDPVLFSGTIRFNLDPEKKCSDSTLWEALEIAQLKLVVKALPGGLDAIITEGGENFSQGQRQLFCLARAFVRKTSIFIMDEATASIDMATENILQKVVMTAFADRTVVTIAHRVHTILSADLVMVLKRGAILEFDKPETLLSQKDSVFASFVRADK

Substance	reversal of syntaxin-1A inhibited KATP current at t=15 min compared with t=0 min ([1]; MgADP 3 mM in pipette, 0.3 mM ATP, syntaxin-1A overexpressing HIT cells, measured at −120 mV) [%]	binding (pull down) to NBF-1 and NBF-2 of SUR1 (NBF-1 and NBF-2 of SUR-1)	binding (pull down) to NBF-1 and NBF-2 of SUR2A [2]	KATP whole-cell currents versus control cells ([1]; HIT cells transfected with (overexpressing) syntaxin-1A, pipette 0.3 mM ATP, 15 min)	KATP whole-cell current at t=15 min relative to t=0 min ([1]; syntaxin-1A overexpressing HIT cells (>3 fold by Western), pipette 0.3 mM ATP, measured at −140 mV)	KATP whole-cell currents versus control beta cells ([3]; recombinant syntaxin-1A 10^−3 M dialyzed through patch pipette, 0.3 mM ATP, 15 min)	inhibitory effect on mean KATP whole cell-currents (channel activity) ([3]; recombinant syntaxin-1A, 0.3 mM ATP in pipette, measured at −120 mV, recorded for 15 minutes)
MgADP [reference compound]	46	–	–	–	–	–	–
syntaxin-1A: endogenous SNARE superfamily protein; recombinant rat syntaxin-1A (SEQ ID NO: 1) or overexpressed in cells	–	directly ‘pulled’ down	directly ‘pulled’ down	reduced compared with the control cells	remained unchanged	reduced compared with the control beta cells	strongly inhibits
